Biological target: T1, tetanus toxoid (UniProt P04958 2-1315)
T1 construct: also called TT
Assay: SPR, antibody captured on protein A, H1 then TT

T1 sequence (P04958 2-457 limits assumed, chain 1 of 2): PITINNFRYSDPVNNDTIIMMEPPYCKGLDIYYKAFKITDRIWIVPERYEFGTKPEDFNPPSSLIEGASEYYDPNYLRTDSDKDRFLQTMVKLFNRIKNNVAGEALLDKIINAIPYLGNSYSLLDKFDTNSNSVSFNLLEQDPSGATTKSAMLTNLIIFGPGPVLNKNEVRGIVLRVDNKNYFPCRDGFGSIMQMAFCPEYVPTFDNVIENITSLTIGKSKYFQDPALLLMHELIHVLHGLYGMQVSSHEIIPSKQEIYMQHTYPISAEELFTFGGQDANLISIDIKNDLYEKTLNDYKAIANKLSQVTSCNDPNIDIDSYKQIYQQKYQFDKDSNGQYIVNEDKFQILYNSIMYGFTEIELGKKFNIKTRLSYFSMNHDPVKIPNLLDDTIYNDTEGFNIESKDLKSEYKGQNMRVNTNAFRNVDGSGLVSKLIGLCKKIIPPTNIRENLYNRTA
T1 sequence (P04958 458-1315 limits assumed, chain 2 of 2): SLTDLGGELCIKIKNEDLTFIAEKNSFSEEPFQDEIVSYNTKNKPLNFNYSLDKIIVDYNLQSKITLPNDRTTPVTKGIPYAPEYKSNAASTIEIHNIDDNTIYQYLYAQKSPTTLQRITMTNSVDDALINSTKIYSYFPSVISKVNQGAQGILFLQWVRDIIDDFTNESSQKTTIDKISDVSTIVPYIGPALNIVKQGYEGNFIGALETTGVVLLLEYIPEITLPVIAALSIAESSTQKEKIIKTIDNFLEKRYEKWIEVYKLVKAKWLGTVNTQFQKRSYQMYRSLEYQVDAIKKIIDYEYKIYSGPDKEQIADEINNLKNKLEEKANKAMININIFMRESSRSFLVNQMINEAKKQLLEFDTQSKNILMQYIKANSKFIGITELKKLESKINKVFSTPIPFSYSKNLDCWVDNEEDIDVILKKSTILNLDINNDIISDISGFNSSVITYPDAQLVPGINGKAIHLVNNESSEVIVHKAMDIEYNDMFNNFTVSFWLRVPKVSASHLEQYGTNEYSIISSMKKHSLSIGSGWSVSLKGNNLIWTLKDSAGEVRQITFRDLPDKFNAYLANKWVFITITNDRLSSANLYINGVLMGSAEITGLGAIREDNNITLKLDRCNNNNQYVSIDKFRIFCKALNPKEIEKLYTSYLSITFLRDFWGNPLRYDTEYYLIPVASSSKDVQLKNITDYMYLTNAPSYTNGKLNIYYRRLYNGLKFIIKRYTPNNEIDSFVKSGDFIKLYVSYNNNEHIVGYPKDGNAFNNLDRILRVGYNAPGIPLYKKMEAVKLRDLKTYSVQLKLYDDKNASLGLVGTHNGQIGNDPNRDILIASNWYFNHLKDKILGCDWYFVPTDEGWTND

B1: FI174 (antibody, V domains shown)
VH: QVQLVQSGAEVRKPGSSVKVSCKTSGGIIRKYALSWVRQAPGQGLEWMGGIIAIFGTTNYAQKFQGRVTINADESTSTVYLELSSLTSEDTAIYYCAGSATYYESRFDYWGQGTLVTVSS
VL: EIVLTQSPGTLSLSPGARATLSCRASQSVSSSSLAWYQQKPGQAPRLLIYDASSRATGIPDRFSGSGSGTDFTLTISRLEPEDFAVYYCHQYGDSRKTFGQGTKVEIKR
notes: also called F1174; FI74
Question: Does B1 bind?
Answer: no binding (tested: tetanus toxoid 50 nM)

From patent publication US20200325220A1 (INSTITUTE FOR RESEARCH IN BIOMEDICINE, published 2020)
